Source: US20150246971A1 (RESEARCH DEVELOPMENT FOUNDATION, published 2015)
Values belong to the binder of their own block, whether it stands above or below them.

Experiments:
[1] = target: T1, soluble human JAM-C-FLAG protein (human, UniProt Q9BX67 32-237); assay: SPR (Biacore 2000), JAM-C FLAG on a CM5 chip
T1 construct: Amine-coupled to a Biacore CM5 chip; also called immobilized JAM-C; human soluble JAM-C FLAG protein
T1 sequence: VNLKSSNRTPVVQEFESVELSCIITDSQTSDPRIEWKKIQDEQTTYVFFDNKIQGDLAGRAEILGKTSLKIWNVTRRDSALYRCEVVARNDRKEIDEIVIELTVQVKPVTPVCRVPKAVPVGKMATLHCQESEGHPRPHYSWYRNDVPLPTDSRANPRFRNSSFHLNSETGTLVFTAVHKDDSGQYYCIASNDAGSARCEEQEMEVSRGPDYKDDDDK
Procedure: (§1) To confirm the specificity of the JAM-C/JAM-B interaction at the molecular level, soluble human JAM-C-FLAG protein was covalently immobilized to a Biacore CM5 sensor chip Immobilization was assessed by testing the binding of anti-JAM-C monoclonal and polyclonal antibodies. […] Homotypic JAM-C/JAM-C interaction was never observed under these conditions, even when injecting higher concentrations of JAM-C Fc. […] To validate these findings for the model of human cells injected into mice, the inventors subsequently confirmed that human JAM-C binds to murine JAM-B to the same extent as to human JAM-B (FIG. 6B).
(§2) Interaction studies were performed on a Biacore 2000 (GE Healthcare). Recombinant proteins were immobilized at a concentration of 5 μg/mL on a CM5 sensor chip using the amine coupling kit (NHS-EDC) provided by the Biacore supplier. Background signal from a reference channel without soluble JAM-C was automatically subtracted. Proteins (30 μL) were injected (Kinject) in running buffer (400 μM Tris-HCl pH 7.4, containing 145 mM NaCl) at a flow rate of 20 μL/min.

[2] = target: T2, human JAM-C (full-length, on cells) (human, UniProt Q9BX67 32-310); assay: adhesion of CFSE-labelled JAM-C-transfected Raji cells to coated Fc protein
T2 construct: whole, on cells; also called HuJAM-C; junctional adhesion molecule C
T2 sequence (looked up): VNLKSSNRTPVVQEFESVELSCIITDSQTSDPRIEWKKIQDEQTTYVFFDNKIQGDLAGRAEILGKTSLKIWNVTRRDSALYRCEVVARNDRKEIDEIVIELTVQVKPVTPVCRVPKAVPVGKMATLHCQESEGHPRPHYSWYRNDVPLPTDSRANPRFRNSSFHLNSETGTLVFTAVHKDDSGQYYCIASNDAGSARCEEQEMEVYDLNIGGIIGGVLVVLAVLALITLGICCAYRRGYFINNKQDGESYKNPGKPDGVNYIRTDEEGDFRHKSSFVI
Procedure: (§3) Although homotypic JAM-C/JAM-C and heterotypic JAM-C/JAM-B interactions have been reported, the endothelial ligand for JAM-C on B cells had not been described. To investigate this interaction, adhesion assays were performed. Culture plates were coated with recombinant human and murine JAM-B Fc, human JAM-C Fc, human VCAM-1 Fc as a positive control, and JAM-A Fc as a negative control. The JAM-Cneg B cell line Raji was transfected with the full-length human JAM-C cDNA and mock-transfected cells were used as a control (FIG. 5A). Whereas mock-transfected Raji cells adhered only to VCAM-1, JAM-C transfected Raji cells adhered to JAM-B and VCAM-1, but adhered neither to JAM-C nor to JAM-A (FIG. 5B-C). […]
(§4) For cell adhesion assays, NUNC 269787 adhesion plates were successively coated with anti-huFc antibody (Jackson Immuno Research) at 2.5 μg/mL, Fc-labeled proteins at 2.5 μg/mL, and blocked with 1% BSA (purified fraction V, Sigma). […] One hundred microliters of lysed cells were transferred into a 96-well plate (micro-clear plates black, Greiner), and fluorescence (πex 485 nm; πem 538 nm) was measured with a Flex Station Microplate reader (Molecular Devices). Data were expressed either in arbitrary units or as the ratio of the fluorescence measured on JAM-B Fc coated wells to the fluorescence measured on wells coated with Fc control protein.

[3] = target: T1, soluble human JAM-C-FLAG protein; assay: SPR (Biacore 2000), JAM-C FLAG on a CM5 chip, response at the end of injection
Procedure: as §1, §2

[4] = target: T2, human JAM-C (full-length, on cells); assay: adhesion of CFSE-labelled JAM-C-transfected Raji cells to coated Fc protein (human and murine JAM-B Fc coated)
Procedure: as §3, §4

B1: recombinant human JAM-B Fc (Fc fusion)
chain: FSAPKDQQVVTAVEYQEAILACKTPKKTVSSRLEWKKLGRSVSFVYYQQTLQGDFKNRAEMIDFNIRIKNVTRSDAGKYRCEVSAPSEQGQNLEEDTVTLEVLVAPAVPSCEVPSSALSGTVVELRCQDKEGNPAPEYTWFKDGIRLLENPRLGSQSTNSSYTMNTKTGTLQFNTVSKLDTGEYSCEARNSVGYRRCPGKRMQVDDLNIS
notes: Bought (R&D); also called soluble JAM-B Fc; soluble human JAM-B Fc; not shown: Fc tag (detected with anti-human IgG1 Fc)
binding result [1]: binds | binding result [2]: binds

B2: human JAM-B FLAG (ligand)
chain: B1 chain
notes: also called human JAM-B FLAG protein; not shown: FLAG tag
binding result [1]: binds

Now from value to binder:

binding result [3]: binds
B3: murine JAM-B FLAG (ligand, UniProt Q9JI59 29-236, looked up)
chain: FSASKDHRQEVTVIEFQEAILACKTPKKTTSSRLEWKKVGQGVSLVYYQQALQGDFKDRAEMIDFNIRIKNVTRSDAGEYRCEVSAPTEQGQNLQEDKVMLEVLVAPAVPACEVPTSVMTGSVVELRCQDKEGNPAPEYIWFKDGTSLLGNPKGGTHNNSSYTMNTKSGILQFNMISKMDSGEYYCEARNSVGHRRCPGKRMQVDVLN
notes: also called murine JAM-B FLAG protein; not shown: FLAG tag

binding result [4]: binds
B4: recombinant murine JAM-B Fc (Fc fusion, UniProt Q9JI59 29-236, looked up)
chain: B3 chain
notes: Coated on adhesion plates; also called mouse JAM-B; not shown: Fc tag (captured by anti-huFc antibody)
